# Experimental data: the domain aggregation screens of Martell et al. (2025)
# Test: soluble fraction after stress (log2 fold change); higher = more stays soluble; pooled small domains, quantitative proteomics
# Details: stress: 50 degC
# In short: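 Custom libraries of small protein domains were pooled and measured in a high-throughput format, with quantitative proteomics as the read-out. Each library was stressed at 50°C. The value is the log2 fold change in the amount of each protein that stays soluble after stress, used as a measure of aggregation propensity; higher values mean more of the protein stays soluble.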
row,Sequence,soluble fraction (log2)
1,HMIGTPLSEWQKDAPEEITRDQIAELVILKFVTVEQLALASDAQLQRIGMGGVGLRERAKLYLNRK,-1.15
2,HMVKIVWSKEGPYVGTRVRRYFSQGPVDGTVVMYAKPQKGDDVALWRISHDDGDEEDLEEQELRLAID,-1.65
3,HMVSINETAFIQIKNSSATEIKEKITALKLDELKNVTITADIRTNKLIVVGPKATINKIQELVIELDTES,0.281
4,HMKDLDSLSQEAKSVYAVFSDKPIHIDDIKRKTGLDFSKLFKAVTELELAELISSGEGKMYSL,-0.0108
5,HMSTTYAPYLLGETEQEAIRMARNAGLDPQVVRQSDKSEAGTVILQSHDFGFAMKRGAVILITVSSGPLQ,-1.44
6,HMNIMNINQALNVLNLKGTVSKEELAKAYKKMAIKYHPDRNPTGVEMMKVINSAYEFLKGLNLEEIKH,0.256
7,HMYSNDEIVNYLKNYIFDNFNLNELSDEELEEKIAELVQQQFAGQLLSLDEKVKLVNQVYSSIR,0.0129
8,HMITLYIHNLEEVGKRLDHYLVSNLDDHSRSQIQSWIRSGSILVNDRSVKTGYSLELNDQILINPPK,-2.63
9,HMGEPVASSREVAKRFGKEHKHVLAAIRQILVAENSATKFFHETAFEYRGQRFPEYLMNRDGFALLAMGF,-3.1
10,HMNIDQAFISDLERMIMPDISKYELMDIISIMENSGFTIKVEGTGNEVRQVIKPGSKLKKGQKIKIKL,-1.83
11,HMAVENTGLSKRELEILQMMARGMSNQEIGDALFISLSTVKTHVASIFSKLQAVRRTQAVGIAKSLKII,-0.917
12,HMSKQIEVPDVTDMTVSDAIDVLQDKGFVVSDEQKEVASSEIEEGRVVRTSPAVGSKRKDGTVVTLYVSI,0.045
13,HMGMVKLNEEYLEKVKKHRKELHITQLQISKKLGWSLSRYQRFESGFYKEIEDDAPKKIKEEFGIDYSLL,-0.976
14,HMAETLRLVGATNLNTLARARHPDDLAARNEFRRAIAQANPALFAGKSKVGSVSLPAGTVLALPPEV,0.184
15,HMRTNVDISPKILEWVLSQVRNRTTNDVIETIQIWIKGEKPPTFNQVEKISKATGVPLGYFFLKTPPVED,-0.805
16,HMGDLVFDFVHGVHKAAEVEKELVMQALRFTHGNVSRAARLIGMQRSSLRYRIERYRLDAFVMEVAN,0.3
17,HMGIRAFDPEAFDERLKEFFSMIAPYKKLDTRSLQPHFPHHAKEVAERIRQLAEAGKIKVDGFYISEL,-0.108
18,HMGQDLSYYIKIVQNQQPVDPLTGEPKVLDYGEVIRQAQILQMLDTGDLDRDKAIGQLSMKDAL,0.0152
19,HMNKNLQLMINEIKKGLASEDIETRKKSVLMLSRIDAPEIIQVLEPLKDDSSEEIRKISSKIISVLSKKYT,0.168
20,HMGMESFWNRVANLLNTSTVVELAQILDVKRSTLSSWIHSDRRPPMEVLLKITRLTGVDIHRLE,-1.56
21,HMSEDAVKFRAAVEVENGLAQRNLNKNQAALILGVDRSYFTYIISGKKTPSPDMAKRIGLLLGFDWRVFYA,-2.03
22,HMKSIFIRADELAAELDVSKALAYKMINQWNEELKAKGYTTVGGRVSRQYYYEKIYGAENVFDF,-2.37
23,HMNNDFVERLRKLFGHASMAEIARRIDVPHATIRNYFQGRLPAPEVLIKLARETGVSLNWLLTGEGKMFA,-0.253
24,HMIESLKGILHKKDPTIAIIDVGGVRLSVNITLSTYEKLEEINSSIELLTYFNVREDAMELYG,-0.157
25,HMSNFGALLRMRRLEAGLSYRGLAEQSGLARATLVNLEQGLTKPSPLTMRRLASVKALRLTEL,-2.26
26,HMLISDENMLRDLVQAVLDENPKSVSDYKSGKTKAFGFLVGQTMKAVKGQADPMLVNKILTELLN,-0.0365

row,Sequence,soluble fraction (log2)
1,HMNEMSDTITRLLDAAETGIRLRGYHAVSFRDLAEELGIKSSSVHYYFRQKEDLGLAVVERY,0.0289
2,HMHGTIHSAAYGGDIEAVKKFLAAGADVNANGGGRTPLDLAIQVKNTEIADLLRKHGGKTGDELKA,0.0271
3,HMKNSIKLDNFVGMSYDEVISNKEYDFNFVSAFEKTSDYEAGTIIGQTPAAEERVMVGTTVTLTVAQP,0.0342
4,HMVDSLTIGRRIRQLRTERGMTLEELAAAVGRAPSQLSMIENGRREPKLTLLQAIARALGSTLDALLE,-0.116
5,HMTFPAILRELLEKHPQTGKRTTLKELGEAVGTRQQSISLYRNGDTQPSPDILVRIAAFFGVSVDYLL,-0.419
6,HMRKDYTVLYSAVNAEEATEIVSKLQESGVAYQYKDNGDVLVDKKQVDKVRAQLAQEGYPKS,0.164
7,HMEANPLTDREKEVLELVADGKNTKEIAQELSIKSGTVRNYISMILEKLEVKNRIEAITRSKEKGWF,0.144
8,HMDNTSNVEKTLRFIRQRGKVSRKEVETLLGSSKFPAISALNELLAENKIVKTGSGPAVRYSVS,-0.0887
9,HMAAHWANFLEALRAGRARRVLVARGVEGWLLKELERLGAPYTLVPRIELDTLLRTTHHQGIAAEVE,-0.692
10,HMDNIEIGNRIREIRIKKNISVFELAYRTKTSQSHIYQIEGGSQNMSIELLFKIADTLETDPNTILGV,-3.78
11,HMSYKFDSLAIILNKLDGKETVNVSSLSDELEVSARTVHRYIGTLQVAGFPIEYDKTKNSYIFSEGYTL,-0.874
12,HMQGVNLTETEKNFIAQVLSPLLKQGQSLYQIRTNHPEIKLSVKTLYTYIESGIFKESGINNFSLRRQ,0.0431
13,HMNADKEALIAAAYRNSLIENFGTENVERYEERFNKWADKHDRQGMPMYPTIEKWMNEDNIA,0.111
14,HMALLKRQDEILMYLYTQNKWITGNELAQLFHVSLRTIRNDISFINTEKSNSVLSNRNKGYHIAKDFVYNE,-0.924
15,HMVTDSGEIEKLVDEVIDNNPDQVQQFREGKQQVLSYLVGQAMKLSRGKANPNQVNQFLRDKL,0.291
16,HMSPSQFRSKSLLVEINFASRQMDGEILQGDYAGKRLSELTEAEVQELTAWLKQSDRESFVLLQAYLLRSG,-0.881
17,HMDAYDEVTTLSQMVASGKNTTVAHLKHLKEYHQTDYLRQAVEWLLSNRKNVSFSVDEVMQEVHN,-0.0339
18,HMRLGQLQSVEEPKFIEVHSGKQGDIGEQTIVEYEIDAKYATGDATINLKLLFRDGLFEIYNFNFSSEALL,0.0828
19,HMTLNTQLFTWKKGVRVGEDDQGNIYYRTKDDKRRWVIFTGETEATKVSPDWHGWLHRTWATPPNK,-2.39
20,HMPESYFEMLQKLLETYALPQEGTIYFSAADLARMPQKFEDVIEQTAQKKGGHLVVSKEPKDMDGGFVLV,-1.41
21,HMSVRPMVEILRVVGSPSPVWVTWARNRAAWLYETGIRPQQRLRMADGTEVLIRLVGEFAHILVVGG,-0.31
22,HMTKKSLFNQYLDDQKRLDIVTLQKAELVDLHKLADELNIDQYNQLKKNELIFKILQSNPSE,-0.135
23,HMTGNWRQMHKVKSKETIYGIAKEYGITVDELTKANPGMEAPGYTLKKGDYIFIPYATADANV,0.399
24,HMFMSDDDIRILVKEWLQSQNRKSYQLAEEIGIRPQTFYAQMSVRKISANTKKALSRIIPGL,-0.86
25,HMESGFEAVREVARHGSFANAAKALGVSGPAVSRQVKSLEERLGLVFFHRTTRMVTLTEAGQQLVDTLD,-0.00498
26,HMGGGVSSSLAGNVFKVLLPAGSVVEQGQAVIVLEAMKMETEVNAPKSGSVSSVFVNEGDTVEVGDLLFAI,-0.17

row,Sequence,soluble fraction (log2)
1,HMATESYYVLKADVPAKTLVTQEMVEEIKVSKGGAPVNSIKIDNIKEKGVYTSIPLLKGDVLSASNTG,0.00692
2,HMDYKSKLQELVQTEKRTVEYKLVDESGPAHNKSFTFEVVISGIKYGSGTGASKKIAEQNAAKEALEKLA,-0.0871
3,HMIMNDIQAKVLEIAETKDLGSITYYRLSKMLGVDHPYRVKYAIDKLIEKGLLTAKSDGSITKAI,-0.601
4,HMTTIPAGRQQYILSLIRREGTVTVSRLAQELEVSELTIRRDLDQMAARNLVERTHGGATERR,-0.138
5,HMISLNEDQKLAILNEWNQRPDDPPFIKELIELVFPDIPEEAKTGRSRYGIAIKKFLAEKSLQAKV,-0.305
6,HMDYNYLVFVTNTGPRSIAVEDLEMTVSDGKLVVSSGADGETFDLSTLTKMYFSDAAVVSINDV,-0.996
7,HMLAMHVVESVGGAEQFTKLQNFAKTQNADYQKMWNDTMNSGNVLAIKTMLSGIQSDMIAVQ,-0.16
8,HMYYSERILTILEERGISPYRVSKETGISQSVFSNWKRKPTSRITAANLERLADYLGLPVEVLTG,-3.45
9,HMHLTRYQYKVETEQEAVGLKELSSVHDLQIKENEATFQADSDAIDEILKTLLLYGVKKLEATPPTLED,-0.0366
10,HMYTVRDGDTVFGILNRFGVSLDELLSLNPELSNGLKAGMVLKIK,-0.491
11,HMNFTETENRIYEEILKNVKQHKKKTVVQIAEKVDVAPSYVIKVAKKLGYSGLNEMWYSLSGIY,-0.54
12,HMKKQLKSEAVADELRRKILSGGFPDKRLPRKDELTEYFQVSQKTVEAALKMLTAEGLIRGVKGTGIFVNG,-0.0396
13,HMTDTDVLSSRLSALSSGRTSAVRLRDGVLSLVLDVGGLSIEARKAMTTAIESTARATPGVEAVRIAET,-0.0141
14,HMKKTPLSELTNRAVELFIETVFMERNYSVSSQRQFISALKIFTVFYPQTKIHNLSLERLQSSFDKLLN,-0.452
15,HMKLPIEKESYRIIWDLEEESFRIRLKISENSPQEEKNILINQAIEDIENITGEPIDKSPYYVLYE,0.0672
16,HMKLEEITIIVPSLRLDNFVSDLARTSRSKAVQIIDSERVFINGQNETKASKQVKLGDVITSA,-0.277
17,HMETIHEMVNRLSSEGFIKNEDGIWYLRDRRGDGTKWLKNPFFESTGEKDAFALIDHLKVNDELLSKLRK,-0.3
18,HMQRSVNYSELHEIKERVFDALYSSPMSMPDLLAWLKGDEEHTISVIRLMQDNGDIEMGEDGRLAVV,-0.275
19,HMELSAQEIGRRLRIARENADIRQDDAAQVIGMSRPTLVSIEKGVRRVRIQEIQMLARHYGVSVNALLR,-2.14
20,HMDIFLPDVKGYDLIPSFRRHLPDIDVIAMTGYNTRALESAVRQQDVLFYMIKPFEASQLKEILEHLVK,-0.221
21,HMAKNYYEILGLKSDATLPEIKKAFKKLSKKFHPDKNRDDDGYFESMFKSINEAYQVLIDEDKRATFDSHH,-0.59
22,HMEFSYMDQGLERYRAFLETHGHGNVPESYHELKLVNFVAHIRKLYRMNLLSEERRRALDEAGFVF,-2.17
23,HMPDLSEDEEKIVSLLRDNNDLNVNIIVMRTQLPSATVTSSLFSLELKGVVRMYAGGMYHLM,-1.7
24,HMAAAQILRAAVLRVPAEETMRFVTETPELRRYLGASLGPTAAIVRPGQEQNLAAALQSHGILVEFDE,0.0258
